Target: the molecule itself
Assay: cryo-EM structure; cryoET and subtomogram averaging of spikes in situ on vitrified, chemically unfixed, purified HCoV-NL63 virions; C3 symmetry imposed; crown 6.9 Å, stalk with membrane 11.5 Å; focused classification of RBD and domain 0

B1: human coronavirus NL63 (HCoV-NL63) spike glycoprotein (S) (natural protein)
chain: CNSNANLSMLQLGVPDNSSTIVTGLLPTHWFCANQSTSVYSANGFFYIDVGNHRSAFALHTGYYDANQYYIYVTNEIGLNASVTLKICKFSRNTTFDFLSNASSSFDCIVNLLFTEQLGAPLGITISGETVRLHLYNVTRTFYVPAAYKLTKLSVKCYFNYSCVFSVVNATVTVNVTTHNGRVVNYTVCDDCNGYTDNIFSVQQDGRIPNGFPFNNWFLLTNGSTLVDGVSRLYQPLRLTCLWPVPGLKSSTGFVYFNATGSDVNCNGYQHNSVVDVMRYNLNFSANSLDNLKSGVIVFKTLQYDVLFYCSNSSSGVLDTTIPFGPSSQPYYCFINSTINTTHVSTFVGILPPTVREIVVARTGQFYINGFKYFDLGFIEAVNFNVTTASATDFWTVAFATFVDVLVNVSATNIQNLLYCDSPFEKLQCEHLQFGLQDGFYSANFLDDNVLPETYVALPIYYQHTDINFTATASFGGSCYVCKPHQVNISLNGNTSVCVRTSHFSIRYIYNRVKSGSPGDSSWHIYLKSGTCPFSFSKLNNFQKFKTICFSTVEVPGSCNFPLEATWHYTSYTIVGALYVTWSEGNSITGVPYPVSGIREFSNLVLNNCTKYNIYDYVGTGIIRSSNQSLAGGITYVSNSGNLLGFKNVSTGNIFIVTPCNQPDQVAVYQQSIIGAMTAVNESRYGLQNLLQLPNFYYVSNGGNNCTTAVMTYSNFGICADGSLIPVRPRNSSDNGISAIITANLSIPSNWTTSVQVEYLQITSTPIVVDCATYVCNGNPRCKNLLKQYTSACKTIEDALRLSAHLETNDVSSMLTFDSNAFSLANVTSFGDYNLSSVLPQRNIRSSRIAGRSALEDLLFSKVVTSGLGTVDVDYKSCTKGLSIADLACAQYYNGIMVLPGVADAERMAMYTGSLIGGMVLGGLTSAAAIPFSLALQARLNYVALQTDVLQENQKILAASFNKAINNIVASFSSVNDAITQTAEAIHTVTIALNKIQDVVNQQGSALNHLTSQLRHNFQAISNSIQAIYDRLDSIQADQQVDRLITGRLAALNAFVSQVLNKYTEVRGSRRLAQQKINECVKSQSNRYGFCGNGTHIFSIVNSAPDGLLFLHTVLLPTDYKNVKAWSGICVDGIYGYVLRQPNLVLYSDNGVFRVTSRVMFQPRLPVLSDFVQIYNCNVTFVNISRVELHTVIPDYVDVNKTLQEFAQNLPKYVKPNFDLTPFNLTYLNLSSELKQLEAKTASLFQTTVELQGLIDQINSTYVDLKLLNRFENYIKWPWWVWLIISVVFVVLLSLLVFCCLSTGCCGCCNCLTSSMRGCCDCGSTKLPYYEFEKVHVQ
modifications: N-linked glycans at 39 canonical N-glycosylation sites (36 on the crown; N1242, N1247 and N1277 on the stalk), mostly high-mannose
notes: Spike glycoprotein S of human coronavirus NL63, full-length S in the viral envelope; ectodomain residues 1 to 1297 (crown model 1-1224, stalk 1216-1297); Trimeric spike imaged in situ on intact virions; The atomic model covers only the crown (to residue 1224); The stalk model is predicted (I-TASSER, AlphaFold, CCBuilder) and fitted by MDFF; also called S trimer
stoichiometry N: 3
